{"source": "the DeepSol protein solubility set"}
{"test": "soluble on expression in E. coli; label from the status in PepcDB or PDB records"}
{"sequence": "GMTAVFRNTVLVRFKHCDAAGIVFYPRYFEMLNDFIEDWFAQALDWPFDAMHGAGQAGVPTADLHCRFVAPSRLGETLTRELRVVKLGQSSFTVQVRFMGPDSGLRLEVTQRLVCVDTDKIAPRPLPDPVRQAMATYVDETLAATGSPGL", "soluble on expression in E. coli": "soluble"}
{"sequence": "GMTGKISALDLASGELSEPTKAYFAKCEEKLGLVPNVLKAYAFDDKKLRAFTDIYNDLMLGESGLSKLDREMIAVAVSSINHCYYCLTAHGAAVRQLSGDPALGEMLVMNFRAADLSPRQTAMLEFAVKLTEEPAKIVEADRAALRKAGFSDRDIWDIASTAAFFNMSNRVAAAIDMRPNDEYHAMAR", "soluble on expression in E. coli": "soluble"}
{"sequence": "GMTGLSQSQASPMQIQPGNAAFNPWTDAALDTIRDVNQALTLYAEMRVVPAHHDAFLAAIDTVSAKLRVLPGFLSLALKQMSGDSTMVKNYPETYKGVLATAYLDGVAAGTQPYFYNLFVRFADGRAARAAGFEALFETHIHPLLHAMAPRGGDGPELLAYRAVLQSVVAGDRHAIYRGAEEIRSFLRRPVELPERETVTVENHVMVPEDKHAAWEPQVAILLQVAQDTFEPQDEPSGVGLPGARDNRYYRKALSTEILRNAHADGGLRAYIMHGVWESVWDHENSHLDPRFLAAAGPVGAAAVVGPVEPFYLTRRLVVAD", "soluble on expression in E. coli": "soluble"}
{"sequence": "GMTKAREFLGTGWKFPVAAGADGAMVLSSAEEDIAESIRIILGTARGERVMRPDFGCGIHDRVFSVINTTTLGLIENEVKEALILWEPRIELLSVTASPREAAEGRLLIDIEYRVRSTNTRFNLVYPFYLKESA", "soluble on expression in E. coli": "soluble"}
{"sequence": "GMTSPSIESGARERTRRAILDAAMLVLADHPTAALGDIAAAAGVGRSTVHRYYPERTDLLRALARHVHDLSNAAIERADPTSGPVDAALRRVVESQLDLGPIVLFVYYEPSILADPELAAYFDIGDEAIVEVLNRASTERPEYPPGWARRVFWALMQAGYEAAKDGMPRHQIVDAIMTSLTSGIITLPRT", "soluble on expression in E. coli": "soluble"}
{"sequence": "GMYLKELSMMPGVSGDEGKVRDFIKSKIEGLVDNLYTDVLGNLIALKRGRDSSKKLLVSAHMDEVGFVVSKIEKDGKVSFLPVGGVDPRILPGKVVQVKNLKGVIGYRPIHLQRDEENTPPRFENLRIDFGFSSADEAKKYVSIGDYVSFVSDYIEKNGRAVGKAFDDRAGCSVLIDVLESGVSPAYDTYFVFTVQEETGLRGSAVVVEQLKPTCAIVVETTTAGDNPELEERKWATHLGDGPAITFYHRGYVIPKEIFQTIVDTAKNNDIPFQMKRRTAGGTDAGRYARTAYGVPAGVISTPARYIHSPNSIIDLNDYENTKKLIKVLVEEGKIVEVVS", "soluble on expression in E. coli": "soluble"}
{"sequence": "GPGSMADEEDYDFEVNKKETDKIERPERLIEVLQHDTNQTLTEEMVEHAQAVLDFMPVEYTYKDVAAKLKCRLDGAYGGTWHVIVGKHFGANVTNDDDTLINMKINGVYFLAMRSGPPERPQESAENEAVTAE", "soluble on expression in E. coli": "soluble"}
{"sequence": "GPGSMADILKSVKRIVVKVGSSILVDNQEIAAHRIEALCKFIADLQTKYEVILVTSGAVAAGYTQKEMDKAYVPNKQALASMGQPLLMHMYYTQLQKHGILCAQMLLAAYDLDSRKRTMNAHNTIEVLISHKVIPIINENDATALHELVFGDNDRLSALVAHHFKADLLVILSDIDGYYTENPRASTDAKIRSVVHELSPDDLVAEATPNNPFATGGIVTKLQAAQFLLERGGKMYLSSGFHLEKAREFLFGGSHEIGTLFYPRGSSS", "soluble on expression in E. coli": "soluble"}
{"sequence": "GPGSMALGSGIGLVPMWSSCPSVNPPTFPKGGIEILRQSLEAQEEVERTFREREAGHIECLNFKKSLRHLLRKQNERREELQLVEQRASERTQALLDELLIVVRERLKAMSPEGYQSITFDNGDMYEGNWKSCRMHGTGVMRRVADNDIYEGEWFFGVRNGNGMCCSPNFGTLYSGKWLAGKWHGRGELAEPEGLYIGDFVDGQIRGYGEYLYREGYAYKGDWVNGVYEGSGTFFYTNGARYEGQWRNGYEHGRGTMTYYNGDVYTGDWCNGRKHGTGTYTSKLLQYEGGWSSGAVHGIGKCTYADGSMYKGSWCRGLYDGDGEFVSQDKKCSYKGEFRGGKRCGRGVYQCGEVEYSGDWLDDRRHGVGEIKTRDGRVFRGTWSHDEPHCEVVPGCNLEGTSLSYCGGRGAPIAPEEPDPVLNMRLGLPDEVIDCMADAPT", "soluble on expression in E. coli": "not soluble"}
{"sequence": "GPGSMANDYLFTSESVSEGHPDKVADQISDAILDAILAQDKYSRVAAETLCNTGLVVLAGEITTTANIDYIQIARDTIKRIGYDNTDYGIDYRGCAVLVAYDKQSPDIAQGVDRAHDNNLDQGAGDQGLMFGYACDETPELMPLPIHLSHRLVERQANLRRDGRLPWLRPDAKSQVTVRYVDGKPHSIDTVVLSTQHAPEIDLPALREAVIEEVIKPTLPADLIKGDIKFLVNPTGRFVIGGPQGDCGLTGRKIIVDTYGGAAPHGGGAFSGKDPSKVDRSAAYAGRYVAKNIVAAGLASRALIQVSYAIGVAEPTSVMVNTFGTGRVSDETITKLVREHFDLRPKGIIQMLDLLRPIYEKTAAYGHFGREEPEFSWEAADKALALAEAAGVEPAVQVA", "soluble on expression in E. coli": "soluble"}
{"sequence": "GPGSMASHAEGRLLRRSVPYVESWIAELTPKPVAPAAGAAPAPKGKAKGGTASTGTENATPMSRCCFAVGKVLEVSRHPESEKLYIEKIDLGAELNMLSNNEPRTILSGLQEFVKEEDFVNRLVLVIANLEPRKIGGIPSAGMVLCASTGEDPHDPASAGQGERKVVLLDIPEGTAVGERVVFEGHDMPYEPVLKKKLAKNFEEVMKDVRSSADGEVCWQGKPFQTSAGVIKASLCNARIS", "soluble on expression in E. coli": "soluble"}
{"sequence": "GPGSMCVCASDCVTPMKRDTKGKLSYDMEPAEHRLSSSRSSSCNVVMTAADELAMQINDCRSLFPCIDAGSAVASIRPTSPSGRTVVARVPWTKSTGTTQTPAPEPTRCAVEVRFGYAEGFVCDEKVYEALLPLLLENGLQGAACVVDSDVSDS", "soluble on expression in E. coli": "not soluble"}
{"sequence": "GPGSMDSINSVTFEWVRAGPAYTLDGPHVYHSGCLGSYQPAIGGLEMPAGHGKYFYEIQTSDTRCKVGVCTEDAFLSNVNLGDVELHAAQPSSSLNSRLSEANCCLFNCLTCAVEVNGVEVRSLWRLLVPSAGARFGFLVNTDEGAVQLYVNGEYQGLIADTATGFKGKKLRPCIALDAPPTCGAGAEANKSSASVVPPRKIIASTA", "soluble on expression in E. coli": "not soluble"}
{"sequence": "GPGSMDVVATPLWSSPPCGSPMAGTVSSGNPLFHVGRSYYRSAAKAYNMTRYVVESLKLDETVLATSMAYWHTFVDRLELRKFDEIVLSASCVFLASKVEHYKVRLNRVIALVFEISGEGDEMEGWRRMLLEMELLVCHTLGFNFQIIHPMKRIVELVPEDHTQVLECAHRLFLLSFMTPLCVRVPADEVAEALVYLAADGAGQLEPYAGKFRCDAVERREGIINVMIDALAVMRKNTSLPKVDDMIVARRKRMREQESFRPSVAHSSGGTGSLDVTPSAFLVE", "soluble on expression in E. coli": "soluble"}
{"sequence": "GPGSMEARGNVDGEKFRSINTLRTRFPALTVSDARALLERHNWNVAIAGAEAERGERQRTKADSANYFVGGGDKGSGQQVMAPSGESVSDRSGEIASGSGVHSMIDRIFRKAEVEGAKASGGDGGSGVEDNEPRAFYGRGQRLGYTANPSPYVASTLRAERSVCITVYRDGFEVDSNGFVPLNSDEGRQFVEAMDKGYVPPSLAAKYPNTDLTVNLRDCLQVDYVPPSYIAFQGDGHRLAAPSSTAASSAAPANAQASPATAGRSGTPAYDPSRTVEVRSDEATSFVVLLNTRGERRQVQVNPERHTVDDLYSLAHAYQPELQNFILVERGMPPRRLEASTRSQTIAQAKLSRAVVALQQM", "soluble on expression in E. coli": "soluble"}
{"sequence": "GPGSMEGPPPVCFRQCSFTYGAEPSTLHISQQCFSDYVWILVTEDDTCVPGVVLRFDPHDAGPCVGCESLNNLPSLPCEYLLGVRDHALTNILSSAIAHAIQSVGEQRPLLLCVSAAKTAKRLQTTEERMSFVRMVREKVVALAKGETC", "soluble on expression in E. coli": "not soluble"}
{"sequence": "GPGSMFRRLSSSARAVVAARFYTPPEGLKKLYASDFENSKYPLNIVPSDSVLFAKFLYKAAEEKGNFDNILSDFQKIAAAASKLPIFWERTAVVEKIPEFKQLSEPTFFTLVWMQNNGMLELIQEVAEVYETFVNAKQKKAVAKIFVAPGGEKNVEEARRVAEELHKGLKELADYTLVLKTVVDRTIVKGFAVELAGQYVNKAEGQQKQAGRADEVDYTNLPAPKPQKTVWDDNIETEVLRKYLDGLSQYDMEEAKYGV", "soluble on expression in E. coli": "not soluble"}
{"sequence": "GPGSMGNGCCGCCDAKPDYKLGRPLVSGKTTPCFNDGRLFKIVKGDIWYFYNDTQDYQMKVTADFGNGSNIVAMSDTELVRKNDSGACTATVSVFPLETKAMVQTKEVNGFNVKYSGIAFTDADRQKLRQKAAAQVSADLAEMRKLRERNPKVNNQNRLLKVARGKGKMYVDTSFPPTSQSLIRSGIDSDPDACLKRPETIAWRRPEDFLPKKWHPKIRLFGNISPKDISQGQLGDCYYLCALAALAEHDAAIKGIFKNHHGCCIRSQERKHGAWRVNLNISGWWRTIIIDSYLPTVQLLPVFARNRNHPNELWVSFAEKAYAKVFGSYQAIVAGYPWQALEDLTGFPAYNFGNMWRTAQTDTETRKKLFDSLHRWNKKYLICIATPSNGALKMAGKQLSANQWEALFEKAGLRIGHAYSVLDVRHFPLHRLCMLKIRNPWGSHVEWSGDWGDDSPLWNRYPFIKLACRPEKKADGIFWMEWRDVSKFFDSGSVCFRRGHWFRSWYDYRVLGSFEDLVCDTALLIIVNKTSQFPAYISLHQKDCRGLATSDPDSKYACVMISISEGDINGSQQKVVANSSENPEEPSTEYLFQESRSVSLYYKFTKGHKYLVIPRRMKSSTGNNVPKKKYVIALRTQTKVSSEDVVVNIVRLDKNNAVFKNVASFDAGTPTSLNTLYQIKDGNNVFRTYRSDNLRKGKKQHNAEFELVM", "soluble on expression in E. coli": "not soluble"}
{"sequence": "GPGSMGSEESNNICAYKRTISLAKIYIVLLVKTAMLRYSRLCFPKMGCEEIKRKARRVQLQPTEYLAQHRMQVWQLRFKEMGPPFSRVWVALGGKMRRRRVGRQVDVKDMRYYWRPIEPQYQRLYMSRLRIRDHSNKLRQPMRLRATNADIGSGSSSIEWERASNRKYGAMLAPPKRQDFEFRVV", "soluble on expression in E. coli": "not soluble"}
{"sequence": "GPGSMGSGCSTESSTDVRCSFVGLMDEKKESWRGRLLGDIGKDPTGVTRDFPRTQVYVAAPNRNNYYREKQDHVSVLVLKDKEDESKYFSDRNERVRESLELLVELCGEDSSVIKSEWEKQQKDIPDSSSLLMTVLLESGMMRATEANTENGGAGGETDAVTNIQNGGGGYAPKYTVHSKALRLMQYMVQSVAFFSTQHVTDALRFSWCKHMQDVSWAVYVYTEGGACGKERNSSDEILVLRHMHTLRHYVGQSERSTHPRFEVDWACTFHIDLKRLLDANNTAAKEATFAPEGEVQRIDGELLAARIESPNRKLCRITSTWKKRRSELEGRLMECFGVELTKVDVLDENGPLSALNSGG", "soluble on expression in E. coli": "not soluble"}
{"sequence": "GPGSMHAFRTRDITLRVPSKDKLLRFSFCSSRHLLAETIRRHDLLRSTGAHVDFLQLLGTQITFTSLLASALEGEERVEARFTAEEATILTEALALGECRCYLRPEYNAQLAECGLPTFPLRVNRILYRQEKPFSSVVHADLAELLQPPCDVASSFAAASSGANEASGAPFSLYLPDMERRVPLEAWKSFFSYNSSLHAYNYLRRSDGSVPAVWLQSRIDAVRLVDHGFLNVDSTAAAAAWQRGEACSDEDDEKAQDIRRALLHAIPFSFGVVVTPLAAGVAVDQRVNQLNRVVMEAAALLSAPSGGGATVTSALQPLLDRCAEKHTACQHILSLVSGDHDGAYQAAVAARQYNDDPAQVAAVVDPIRRALGVQDFVVPLAATEAARSGLDFFCRCSKQNVLESLVSAPPRALESLKGSDNTVHCSFCGRRYKLAGAEWQELEMARSASTPPQ", "soluble on expression in E. coli": "not soluble"}
